The target of assay [1] is T1, intact K8/K18(1-65) heterotypic complex (human, UniProt P05787 2-483; P05783 2-66).
T1 construct: Heterotypic complex of two GST fusion proteins; not shown: glutathione S-transferase (GST) fusion partner, modified pGEX-2T vector
T1 chain 1: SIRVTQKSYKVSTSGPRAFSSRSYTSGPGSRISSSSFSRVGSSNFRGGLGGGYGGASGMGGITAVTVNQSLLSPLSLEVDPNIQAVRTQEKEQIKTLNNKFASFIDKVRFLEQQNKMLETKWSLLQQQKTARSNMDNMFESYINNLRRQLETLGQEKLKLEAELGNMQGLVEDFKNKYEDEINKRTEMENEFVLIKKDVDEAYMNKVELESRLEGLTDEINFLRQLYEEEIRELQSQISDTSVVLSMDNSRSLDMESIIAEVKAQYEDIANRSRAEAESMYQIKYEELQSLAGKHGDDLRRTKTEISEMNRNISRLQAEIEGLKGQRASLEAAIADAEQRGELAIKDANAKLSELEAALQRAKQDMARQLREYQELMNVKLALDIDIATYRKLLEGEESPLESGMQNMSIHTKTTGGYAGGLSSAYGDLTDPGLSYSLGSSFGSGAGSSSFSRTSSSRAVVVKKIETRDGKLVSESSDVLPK
T1 chain 2: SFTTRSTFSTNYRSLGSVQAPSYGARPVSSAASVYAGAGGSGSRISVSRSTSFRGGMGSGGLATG
Nature of the assay: heterotypic association Western blot (K18 fragments on the membrane, incubated with purified intact K8). (In general: In western blotting, separated proteins are transferred to a membrane and probed.)

Assay [2] concerns the target T2, K8(130-483)/intact K18 heterotypic complex.
T2 construct: one member of the group m25; not shown: GST fusion partner (modified pGEX-2T) on the keratin proteins
T2 K8 fragment: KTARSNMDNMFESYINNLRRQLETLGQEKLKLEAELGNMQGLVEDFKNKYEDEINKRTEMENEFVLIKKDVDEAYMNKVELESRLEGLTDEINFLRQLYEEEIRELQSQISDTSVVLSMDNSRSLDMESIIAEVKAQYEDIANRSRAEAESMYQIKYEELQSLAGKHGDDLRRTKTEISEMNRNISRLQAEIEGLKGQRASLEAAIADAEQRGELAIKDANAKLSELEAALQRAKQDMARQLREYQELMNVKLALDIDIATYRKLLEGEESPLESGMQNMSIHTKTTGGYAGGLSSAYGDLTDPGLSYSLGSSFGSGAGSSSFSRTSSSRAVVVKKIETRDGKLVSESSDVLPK
T2 K18 intact: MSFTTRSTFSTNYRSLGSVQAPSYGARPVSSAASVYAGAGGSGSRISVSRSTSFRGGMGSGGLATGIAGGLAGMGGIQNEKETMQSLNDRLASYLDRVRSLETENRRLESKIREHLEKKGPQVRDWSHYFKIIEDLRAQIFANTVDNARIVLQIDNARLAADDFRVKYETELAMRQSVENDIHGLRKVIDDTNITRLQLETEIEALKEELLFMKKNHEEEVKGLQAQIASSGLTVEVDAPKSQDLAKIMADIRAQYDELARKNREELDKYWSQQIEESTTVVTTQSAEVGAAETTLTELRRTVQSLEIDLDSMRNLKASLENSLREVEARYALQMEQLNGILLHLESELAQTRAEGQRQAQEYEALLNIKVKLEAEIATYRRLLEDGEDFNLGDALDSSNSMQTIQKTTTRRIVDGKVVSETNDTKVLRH
Briefly: summary map of the heterotypic association assay: GST deletion protein incubated with the complementary keratin, then stained with COU-1.

Assay [3] deals with T3, K8(343-483)/intact K18 heterotypic complex.
T3 construct: one member of the group m25; not shown: N-terminal GST carrier (modified pGEX-2T) and its linker on the keratin constructs
T3 chain 1: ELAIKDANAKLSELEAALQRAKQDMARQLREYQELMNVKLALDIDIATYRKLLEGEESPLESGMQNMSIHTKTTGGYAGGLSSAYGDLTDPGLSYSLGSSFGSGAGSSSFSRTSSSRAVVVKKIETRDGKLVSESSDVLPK
T3 chain 2: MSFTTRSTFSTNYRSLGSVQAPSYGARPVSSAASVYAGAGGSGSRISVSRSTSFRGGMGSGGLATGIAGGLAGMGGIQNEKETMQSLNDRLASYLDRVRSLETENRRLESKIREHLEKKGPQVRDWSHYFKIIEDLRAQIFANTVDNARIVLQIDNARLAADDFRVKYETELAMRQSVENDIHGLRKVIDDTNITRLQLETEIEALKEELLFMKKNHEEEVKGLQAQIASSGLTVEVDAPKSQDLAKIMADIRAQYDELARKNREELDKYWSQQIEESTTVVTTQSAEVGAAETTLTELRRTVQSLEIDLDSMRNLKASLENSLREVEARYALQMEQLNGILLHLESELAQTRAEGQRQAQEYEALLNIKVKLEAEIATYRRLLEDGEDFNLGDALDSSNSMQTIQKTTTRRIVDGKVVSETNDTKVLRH
Described as above.

Assay [4] addresses T4, K8(1-65)/intact K18 heterotypic complex (human, UniProt P05787 2-66; P05783 2-430).
T4 construct: Heterotypic complex of two GST fusion proteins; not shown: glutathione S-transferase (GST) fusion partner, modified pGEX-2T vector
T4 sequence 1: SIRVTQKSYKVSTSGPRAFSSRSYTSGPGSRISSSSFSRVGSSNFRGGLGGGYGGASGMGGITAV
T4 sequence 2: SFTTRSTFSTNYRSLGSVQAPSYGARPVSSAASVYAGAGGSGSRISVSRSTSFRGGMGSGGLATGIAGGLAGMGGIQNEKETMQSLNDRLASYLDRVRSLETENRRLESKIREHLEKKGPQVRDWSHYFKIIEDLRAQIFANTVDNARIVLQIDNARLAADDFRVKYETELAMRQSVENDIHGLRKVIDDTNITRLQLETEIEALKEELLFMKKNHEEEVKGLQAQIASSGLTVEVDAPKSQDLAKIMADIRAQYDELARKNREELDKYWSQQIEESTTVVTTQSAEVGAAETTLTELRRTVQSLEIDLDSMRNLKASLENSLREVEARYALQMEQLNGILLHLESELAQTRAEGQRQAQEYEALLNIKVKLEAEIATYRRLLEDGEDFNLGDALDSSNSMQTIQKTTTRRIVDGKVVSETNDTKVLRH
The assay is described as above.

In assay [5] the target is T5, K8(1-85)/K18(1-187) heterotypic complex (human, UniProt P05787 2-86; P05783 2-188).
T5 construct: Heterotypic complex of two GST fusion proteins; not shown: glutathione S-transferase (GST) fusion partner, modified pGEX-2T vector
T5 chain 1: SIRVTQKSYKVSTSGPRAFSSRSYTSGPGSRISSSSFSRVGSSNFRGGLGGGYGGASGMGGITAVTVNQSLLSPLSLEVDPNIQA
T5 chain 2: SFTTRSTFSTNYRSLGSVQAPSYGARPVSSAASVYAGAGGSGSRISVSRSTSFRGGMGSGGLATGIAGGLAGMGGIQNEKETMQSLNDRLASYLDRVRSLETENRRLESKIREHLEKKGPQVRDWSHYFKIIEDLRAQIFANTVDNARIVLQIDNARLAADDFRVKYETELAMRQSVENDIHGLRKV
Nature of the assay: heterotypic association assay: blotted K8 proteins incubated with purified K18(1-187), then stained with COU-1.

The target of assay [6] is T6, K8(1-85)/K18(1-124) heterotypic complex (human, UniProt P05787 2-86; P05783 2-125).
T6 construct: Heterotypic complex of two GST fusion proteins; not shown: glutathione S-transferase (GST) fusion partner, modified pGEX-2T vector
Briefly: heterotypic association assay: blotted K8 proteins incubated with purified K18(1-124), then stained with COU-1.

B1: human monoclonal IgM antibody COU-1 (antibody, V domains shown)
VH: GAEVKKPGASVKVSCKASDYTFSSYYMHWVRQAPGQGLEWMGIINPSGGSTSYAQKFQGRVTMTRDTSTNTVYMELSSLRSEDTAVYYCARDQVVVAATLSNYGMDVWGQGTTVTVSS
VL: ELTQSPGTLSLSPGERATLSCRASQSVSSSYLAWYQQKPGQAPRLLIYDASNRATGIPARFSGSGSGTDFTLTISSLEPEDFAVYYCQQGTNWGIAFGQGTRLDIKR
notes: Human IgM with kappa light chain, secreted by hybridoma B9165 (ECACC 87040201), purified from culture supernatant; also called HMab COU-1; HuMab COU-1
B1: the binding result in assay [1] is recorded as “no binding (tested: COU-1 5 µg/ml)”; in assay [2], “no binding (tested: 5 µg/ml COU-1 (P-0285))”; in assay [3], “no binding (tested: 5 µg/ml COU-1 (P-0285))”; in assay [4], “no binding (tested: 5 µg/ml COU-1 (P-0285))”; in assay [5], “no binding (tested: 5 µg/ml COU-1 (P-0285))”; in assay [6], “no binding (tested: 5 µg/ml COU-1 (P-0285))”.

These data come from patent US20050048070A1 (published 2005).
